Laboratory results published in patent US20190309300A1 (TECHNION RESEARCH AND DEVELOPMENT FOUNDATION, published 2019).

Target: T1, flag tagged full length HDAC4 (human, UniProt P56524 1-1084)
T1 construct: Full length, expressed in transfected cells and immunoprecipitated from lysate; also called Flag-HDAC4; pcDNA HDAC4-flag; not shown: Flag tag
Assay: co-immunoprecipitation, IP anti-Flag, blot anti-HA (FIG. 7B)
Method: Cultured cells were washed with ice-cold phosphate-buffered saline (PBS) buffer and lysed in buffer containing 50 mM Tris, pH 7.5, 150 mM NaCl, 1 mM EDTA, and 1% NP-40. 400 μg of protein was immunoprecipitated with anti-Flag (Sigma-Aldrich), or IgG antibodies (negative control) and protein A/G agarose beads (Santa Cruz Biotechnology, Inc.) as described previously [Kehat I, et al., Modulation of chromatin position and gene expression by HDAC4 interaction with nucleoporins. J Cell Biol 2011, 193, 21-29]. Beads were washed three times with buffer and suspended in 30 μl of Laemmli buffer. Proteins were separated on an SDS gel, blotted, and detected with primary antibody recognizing HA (Santa Cruz Biotechnology, Inc. sc-805) or flag (Sigma-Aldrich).

T1 sequence (P56524 whole entry): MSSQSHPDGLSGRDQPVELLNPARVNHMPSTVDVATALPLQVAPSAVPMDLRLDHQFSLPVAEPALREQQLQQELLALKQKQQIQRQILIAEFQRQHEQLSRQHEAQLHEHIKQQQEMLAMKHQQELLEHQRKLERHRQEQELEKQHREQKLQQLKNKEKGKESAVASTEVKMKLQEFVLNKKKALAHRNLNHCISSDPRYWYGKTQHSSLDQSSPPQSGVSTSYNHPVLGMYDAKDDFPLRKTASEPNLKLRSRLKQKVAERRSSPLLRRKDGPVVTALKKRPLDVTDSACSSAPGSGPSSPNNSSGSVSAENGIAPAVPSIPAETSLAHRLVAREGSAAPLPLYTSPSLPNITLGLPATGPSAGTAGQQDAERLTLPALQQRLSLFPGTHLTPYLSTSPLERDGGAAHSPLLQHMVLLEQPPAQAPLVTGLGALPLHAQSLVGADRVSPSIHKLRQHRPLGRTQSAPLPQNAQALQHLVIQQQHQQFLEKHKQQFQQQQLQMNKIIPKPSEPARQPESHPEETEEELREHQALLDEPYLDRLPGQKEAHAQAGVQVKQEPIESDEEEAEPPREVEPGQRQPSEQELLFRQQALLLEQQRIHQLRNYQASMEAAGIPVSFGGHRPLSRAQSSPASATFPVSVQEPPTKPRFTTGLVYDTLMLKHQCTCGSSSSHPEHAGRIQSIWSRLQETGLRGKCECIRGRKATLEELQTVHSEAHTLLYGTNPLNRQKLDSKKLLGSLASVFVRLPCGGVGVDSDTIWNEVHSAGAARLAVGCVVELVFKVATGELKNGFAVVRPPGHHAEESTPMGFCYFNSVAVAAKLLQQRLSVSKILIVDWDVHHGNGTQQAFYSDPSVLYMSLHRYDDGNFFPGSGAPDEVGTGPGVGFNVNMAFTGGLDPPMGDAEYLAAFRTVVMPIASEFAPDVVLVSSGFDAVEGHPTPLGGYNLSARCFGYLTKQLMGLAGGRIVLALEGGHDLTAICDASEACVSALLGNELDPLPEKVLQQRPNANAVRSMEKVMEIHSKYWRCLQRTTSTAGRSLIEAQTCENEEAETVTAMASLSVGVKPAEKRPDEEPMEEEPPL

B1: 3HA tagged ENIGMA fragment containing the PDZ domain and linker (other, mouse, UniProt Q3TJD7 1-279, looked up)
chain: MDSFKVVLEGPAPWGFRLQGGKDFNVPLSISRLTPGGKAAQAGVAVGDWVLNIDGENAGSLTHIEAQNKIRACGERLSLGLSRAQPVQSKPQKALTPPADPPRYTFAPSASLNKTARPFGAPPPTDSTLRQNGQLLRQPVPDASKQRLMEDTEDWRPRPGTGQSRSFRILAHLTGTEFMQDPDEEFMKKSSQVPRTEAPAPASTIPQESWPGPTTPSPTSRPPWAVDPAFAERYAPDKTSTVLTRHSQPATPTPLQNRTSIVQAAAGGGTGGGSNNGKT
notes: domain: PDZ domain and linker; not shown: 3HA tag
binding result: no binding

B2: 3HA tagged ENIGMA fragment containing the linker and first LIM domain (other, mouse, UniProt Q3TJD7 86-338, looked up)
chain: PVQSKPQKALTPPADPPRYTFAPSASLNKTARPFGAPPPTDSTLRQNGQLLRQPVPDASKQRLMEDTEDWRPRPGTGQSRSFRILAHLTGTEFMQDPDEEFMKKSSQVPRTEAPAPASTIPQESWPGPTTPSPTSRPPWAVDPAFAERYAPDKTSTVLTRHSQPATPTPLQNRTSIVQAAAGGGTGGGSNNGKTPVCHQCHKIIRGRYLVALGHAYHPEEFVCSQCGKVLEEGGFFEEKGAIFCPSCYDVRYA
notes: domain: linker and first LIM domain; not shown: 3HA tag
binding result: no binding
